# Experimental data reported in the nanobody polyreactivity screen of Harvey et al. (2022).
# Test: yeast display, Sf9 membrane polyspecificity reagent, FACS + sequencing; frameworks hold sequencing errors
# Method in brief: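 Using colony PCR, genes from sorted yeast display clones were amplified, then sequenced on MiSeq at 2 × 250 and filtered by CDR length. The clones had been stained with 10% biotinylated, detergent-solubilized Sf9 membrane reagent for 1 hour at 4 °C and sorted by FACS into low and high (top ~1%) gates on anti-HA and streptavidin fluorescence. Polyreactivity labels come from the gate of origin.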
row,Sequence,polyreactivity (PSR sort gate)
1,QVQLVESGGGLVQAGGSLRLSCAASGSTFYKYTMGWYRQAPGKERELVAAISGSGTTTYYADSVKGRFTISRDNAKNTVYLQMNSLNPEDTAVYYCAASLYLYNSRITVRSHYYYWGQGTQVTVSS,high polyreactivity
2,QVQLVESGGGLVQAGGSLRLSCAASGRTFRWTAMGWYRQAPGKERELVAAISYSGGSTYYADSVKGRFTISRDNAKNTVYLQMNSLKPEDTAVYYCAKAYSWYPIIRGLDSWGQGTQVTVSS,high polyreactivity
3,HVQRVESAGGLVQAGGSLRLSCADSGLIFRGNAMGWYRQAPGKVRELVATISYSGGSTYYADSVKGRFTISRENAKNTVYLQMNSLKPEDTAVYYCNRDPDPWGFQPDWYYGSYDYWGQGTQVTVSS,low polyreactivity
4,QVQLVESGGGLVLAGGSLRLSCAASGFTFEKSVMGWYRQAPGNEREFVAAITRSGGRTYYADSVKGRFTISRDNAKNTVYLQMNSLKPEDTAVYFCAAAFSRSDTGGGSWGQGTQVTVSS,high polyreactivity
5,QVQLVETRGGLVQAGGSLRLSCAASGPIIRYYDMGCYRQAPGTERELVSASNAAGTSTYYADSVKGRFTISRDNAKNTVYLQMNSLKPEDTAVYYCAAQPYYGGGCYCYTRNYKLNYWGQGTQVTVSS,high polyreactivity
6,QVQLVESGVGLVQAGGTLRLSCAPSGSTFSVYAMGWYRQPPGKERELVADITRGGSTYADSVKGRFTISRDNAKITVYLQMNSLKPEDTAVYYCAGEEVTPYPLYWSTREYDYWGQGTQVTVSS,low polyreactivity
7,QVQLVESGGGLVQAGGSLRLSCAASGRIFGEYAMGWYRQAPGKERELVAAITSSTGSTYYADSVKGRFTISRDNAKNTVYLQMNSLKPEDTAVYYCAAADLKYASYWYDYWGQGTQVTVSS,low polyreactivity
8,QVQLVESGGRLLQAGGSLRLSCAASGSIFVGYAMGWYRQAPGKEWELVAAISASGGRTYYADSVKGRFTISRDNAKTTVYLQMNSLKPEDTAVYYCATDDYWGRGTQVTVSS,high polyreactivity
9,QVQLEESGGCLVQAGGSLRLSCAASGIIFWDNALGWYRQAPGKERELVASINYSGGSTYYADSVKGRFTNSRDNAKNTVYLQMNSLKPEDTAVYYCAARTVTLDDWDYAYDYWVQGTQVTVSS,low polyreactivity
10,QVQLVESGGGLVQAGGSLRLSCAASGRTFGPYTMGWYRQAPGKEREFVAAINSSGSRTYYADSVKGRFTISRDNAKNTVYLKINSLKPEDTGVYYCAAEAKWYYSWSYPYEGDYWGQGTQVTVSS,low polyreactivity
11,QVQVVESGGGLVQAGGSLRLSCAASGSIFGANTMGWYRPAPGKERELVAAISSGGNTYYADSVKGRFTISRDNAKNTVYLQMNSLKPEDTAVYYCNAQTRYLYQYGYLGGTGYNYWGQGTQVTVSS,low polyreactivity
12,QVQLVESGGGLVQAGGSLRLSCAASGSTFYNYVMGWYRQAPAKERELVAAITSRGGRTYYADSVKGRFTISRDNAKNTVSLQMNSLKPEDTAVYYCARDRGYQSGYDYWGQGTQVTVSS,high polyreactivity
13,QVQLVVSGGGLVQAGGSLRLSCAASGSIFNVYAMGWYRPAPGKARELVAAITNGDSTNYADSVKGRFTISRDTAKNTVYLQMHSLKPEDTAVYYCNARAPSEYYGLEYDDWGQGTQGTVSS,low polyreactivity
14,QVQHVESGGGLVQAGGSLRLSCAASGRTSYTNAMGWSRPAPGKERELVAAINYSGGSTYYADSVKGRYTISRDNAKNTVYLQMNSLKPEDTAVYYCAAERYYWYTEMGYWGQGTQVTVSS,high polyreactivity
15,QVQLVESGGGLVQAGGSLRLSCAASGSTFVWYAMGWYRQAPGKEREFVATISWSGDSTYYADSVKGRFTISRDNAKNTVYLQMNSLKPEDTAVYYCATAVYLVIFEYDYWGQGSQVTVSS,low polyreactivity
16,QVQLVESGGGLVQAGGSLRLSCAASGSTSVPYTMGWYRQAPGKERELVAAISSSGGTTNYADSVKGRFTISRDNAKNTVYLQMNSLKPEDTAVYYCAAEYYQWVAYSWNEMYYWGQGTQVTVSS,low polyreactivity
17,QVQLVESGGGLVQAGGSLRLSCAASGLIFRSYAMGWYRQEPGKERELVARISIRGGSTYYADSVKGRFTISRDNAKNTVYLQMNSLKPEDTAVYYCAADYASWSNWGYEYWGQGTQVTVSS,high polyreactivity
18,QVQLVESGGGLVQAGGSLRLSCAASGNIFYANAMGWYRQAPGKERELVAGITVRGGRTYYADSVKGRFTISRDNAKNTVYLQMNSLKPEDNAVYYCAVRSRGSRYDYWGQGTQVNVSS,high polyreactivity
19,QVQLVESGGGLVQAGGSLRLSCAASGRIYKRYDMGWYRQAPGKERELVAAITGTGGSTYYADSVKGRFTISRDNAKNTVYLQMNSLKPEDTAVYYCAARLYNTYSGFAFGYWGQGTQVTVSS,high polyreactivity
20,QVQRVESGGGLVQAGGSLRLSCADSGTYGSYAMGWYRQAPGTEREFVAAISASGGSTYYADSVKGRFTISRDNAKNTVYLQMNSLKPEDTAVYYCNKSPRRNRQYDYWGQGSQVTVSS,high polyreactivity
21,QVQLVESGGGLVQAGGSLRLSCAASGRIFRYYAMGWYRQAPGKERELVARITSGGSTYYADSVKGRFTLSRDNAKNTVYLQMNSLKPEDTAVYYCAAETTRWHPWYDYWGQGTQVTVSS,high polyreactivity
22,QVQLVESGGGLVQAGGSLRLGCAASGFTLWYYNIGWYRQAPGKERELVASISWSGGSTYYADSVKGRFTISRDNAKNTVYLQMNSLKPEDTALYYCNVQSYDRIYDYWGQGTQVTVSS,high polyreactivity

row,Sequence,polyreactivity (PSR sort gate)
1,QVQLVVSGGGLVQAGGSLRLSCAASGYTFDDYAMAWYRQAPGKERELVAAISRGGSTYYADSVKGRFTISRDNAKNTVYLQMNSLIPEDTSVYYCAAVYRVRKITNDYWGQGTQVTVSS,high polyreactivity
2,QVQLVESGGGLVQAGGSLRLSCAASGSTFSKNTMGWYRQAPGKERELVAAITGTGDSTYYADSVKGRFTISRDNAKYPVYLQMNSLKPEDTAVYYCAADAYSLCYESWGQGTKVTVSS,low polyreactivity
3,QVQLVESGGGLVQAGGSLRLSCAASGIIFRPYAMGWYRQAPGKERELVAAITWSGTSTYYADSVKGRFTISRDNAKNTVYLQMNSLKPEDTAVYYCAARNVFQSVHLRGGYWGQGTQVTVSS,high polyreactivity
4,QVQLQESGGGLVQADGSLRLSCAASGSIFGYYNMGWYRQAPGKHRELVATINLCRITNYADSVKGRFTISRDNATNTVYVEMHSLNPDDTAVFYCAADEYAQRDLGYWGQGTQVTVSS,low polyreactivity
5,QVQLVESGGGLVQAGGSLRLSCAASGRTIQTYAMGWYRQAPRKERELVAAITSSGGSTYYADSVKGRFTISRDNAKNTVYLQMNSLIPEDSAVYYWSAYRRIRVGVPVRTYYYWGQGTQVTVSS,high polyreactivity
6,QVQLVESGGGLVQAGGSLRLSCAASGFTFWYYTMGWYRQAPGKERELVAAITGRGGTTHYADSVKGRFTISRDNAKNTVYLQMNSLKPEDTAVYYCAARAYRPSLSVVRGGYWGQGTQVTVLS,high polyreactivity
7,QVQLVDTGGGFVQAGGSLRLSCAASGRTFPYYAMGLYRQAPGKERELVAAMTRGVRTQYADSVKGRFTISRDNAKNTVYLQMNSLKPEDTAVYYCAREDWGSYSDMDSWGQGTQVTVSS,low polyreactivity
8,QVQLVESGGGLVQAGGSLRLSCAASGIIFTSYAMGWYRQAPGKEREFVAGISVRGSSTYYADSVKGRFTISRDNAKNTVYLQMNSLKAEDTAVYYCAARTPSRYLYYEYDYWGQGTQVTVSS,low polyreactivity
9,QVQLVESGGGLVQAGGSLRFSCAASGRIFRFYAMGWYRQAPGKERELVAAISSRGGSTYYADSVKGRFTISRDNAKNTVYLQMNSLKPEDTAVYYCNAYGSTSQLDYWGQGTQVTVSS,high polyreactivity
10,QVQLVESGGGLVQAGGSLRLSCAASGLTLAPYAMGWYRQAPGKERELVAVITRRGGRTYYADSVKGRFTISRDNAKNTVYLQMNSLKPEDTAVYYCNADTANYADGLDYWGQGTQVTVSS,low polyreactivity
11,QVQLVESGGGLVQAGGSLRLSCAASGFTFAGYAMGWSRQAPGKERELVAGIRSSGARTYYADSVKGRFTISRDNAKNTVYLQMNSLKPEDTAVDYCAKTDGFYRGYGYWGQGTQVTVSS,low polyreactivity
12,QVQLVESGGGLVQAGGSLRLSCAASGSTFYRYAMGWYRQAPGKERELVAAISRGGGRTNYADSVKGRFTISRDNAKNTVYLQMNSLKPEDTAVYYCAADDTYTRYDYWGQGTQVTVSS,high polyreactivity
13,QVQLVESGGGLVQAGGSLRLSCAASGSTFGYYAMGWYRQAPGKERELVATINRSGGSTYYADSVKGRFSISRDNAKNTVYLQMNSLKPEDTAVYYCNKLAYAGFGYIGSGYWGQGTQVTVSS,low polyreactivity
14,QVQLVESGGGLVQAGGSLRLSCAASGSTQTVNVMGWYRQAPGKEREFVAAINDSGSTYYADSVKGRFTISRDNAKNTVYLQMNSLKPEDTAVYYCATYYWLGLSLYDYWGQGTQVTVSS,low polyreactivity
15,QVQLVESGGGLVQAGGSLRLSCDASGSIFATYAMGWYRQAPGKERELVAAIRRSTGTTYYADSVKGRFTISRDNAKNTVYLQMNSLKPEDTAVYYCAALFRPRVHRYDYWGQGTLVTVSS,low polyreactivity
16,QVQLVESGGGLVQAGGSLRLSCAASGFTFLKNAMVWYRQAPGKERELVAAITGSGGSTYYADSVKGRFTISRDNAKNTVYLQMNSLKPEDTAVYYCNVRRGLRAYEYWGQGTQVTVSS,high polyreactivity
17,QVQLVESGGGLVQAGGSLRLTCAASGFIFYNNAMGWYRQAPGKERELVASIRWSGASTYYADSVKGRFTISRDNAKNTVYLQMNSLKPEDTAVYYCAARQSRLNSYFSHRFWRYDYWGQGTQVTVSS,high polyreactivity
18,QLQLVESGGGLVQAGGSLRLSCAASGFTFRCNAMGWYRQAPGKEMELVAGITSGGSTNYADSVKGRFTISRDNAKNTVYLQMNSLKPEDTAVYYCNAAWYRWKQRYDYWGQGTQVTVSS,low polyreactivity
19,QVQLVESGGGLVQAGGSLRLSCAASGFIFAYNAMGWYRQAPGKEWELVAAISWSGGSTYYADSVKGRFTISRDNAKNTVYLQMNSLKPEDTAVYYCNKYLRYPFKRYGYWGQGTQVTVSS,high polyreactivity
20,QVQLVESGGGLVQAGGSLRLSCAASGRILKRKAMGLYRQAPGKERELVAAISWSTGTTYYADSVKGRLTISVDNAKNTVYLQMNSLKPEDTAVYYCAKKIVSGRRVDRNDYWGQGTQVTVSS,low polyreactivity
21,QVQLVESGGGLVQAGGSLRLSCAASGSIFVNYAMGWYRQAPGKERELVAAISWRGGITYADSVKGRFTISRDNAKNTVYLQLNSLKPEDTAVYYCARRGYGAGPSYRLGDYWGQGTQVTVSS,low polyreactivity
